Test in all cases: HSQC-NMR titration
For test [1], the target named is T1, S100B (Homo sapiens, UniProt P04271).
T1 chain: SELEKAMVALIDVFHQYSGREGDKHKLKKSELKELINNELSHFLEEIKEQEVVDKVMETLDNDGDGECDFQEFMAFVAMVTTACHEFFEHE

For test [2], the target named is T1, S100B.
The target in test [3] is T2, S100A11 (Homo sapiens, UniProt P31949).
T2 chain: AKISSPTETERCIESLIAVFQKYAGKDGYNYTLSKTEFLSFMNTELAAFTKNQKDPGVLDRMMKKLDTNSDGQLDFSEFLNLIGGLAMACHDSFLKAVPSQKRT

This note sets out measurements from article PMC6644751 (2018).

Like-named read-outs stand apart in the source and are kept apart here.

B1: S100A11 (protein)
chain: T2 chain
modifications: Ca2+, monomers after urea denaturation/renaturation
The Kd is a measure of binding affinity in units of concentration. A lower Kd goes with higher affinity. B1: the results for the Kd in test [1] and in test [2] were roughly 2.65 µM and roughly 2.8 µM, respectively.

B2: S100B (protein)
chain: T1 chain
modifications: Ca2+, monomers after urea denaturation/renaturation
With B2, in test [3], the Kd was roughly 2.5 µM.
